Common to all, as to assay: ITC; β16β17 at 25–50 μM in the cell titrated with 15–20 injections to 2–2.5 eq of α0α1; one-site binding model; PBS (50 mM sodium phosphate, 150 mM NaCl, pH 7.04), 25 °C; mutants only against the wild-type partner
Holding throughout (conditions): both partners purified

The target in one experiment is T1, β16β17 F11L (human, UniProt P11277 1898-2083, F2014L).
T1 construct: erythrocyte β-spectrin, human, residues 1898-2083 (β16β17); mutant of m2; also called F2014L; source: E. coli C41(DE3), purified (Ni2+ agarose, thrombin cleavage, gel filtration)
T1 sequence (looked up): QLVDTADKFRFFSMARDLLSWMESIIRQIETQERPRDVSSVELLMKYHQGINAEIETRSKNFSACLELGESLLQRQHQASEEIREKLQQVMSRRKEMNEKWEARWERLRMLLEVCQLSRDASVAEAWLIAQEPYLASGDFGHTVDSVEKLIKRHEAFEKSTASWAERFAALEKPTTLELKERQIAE

The next experiment concerns the target T2, β16β17 Y28L (human, UniProt P11277 1898-2083, Y2031L).
T2 construct: erythrocyte β-spectrin, human, residues 1898-2083 (β16β17); mutant of m2; also called Y2031L; source: E. coli C41(DE3), purified (Ni2+ agarose, thrombin cleavage, gel filtration)
T2 sequence (looked up): T1 sequence (looked up) with L117F, Y134L

The next experiment deals with T3, β16β17 Q25A (human, UniProt P11277 1898-2083, Q2028A).
T3 construct: erythrocyte β-spectrin, human, residues 1898-2083 (β16β17); mutant of m2; also called Q2028A; source: E. coli C41(DE3), purified (Ni2+ agarose, thrombin cleavage, gel filtration)
T3 sequence (looked up): T1 sequence (looked up) with L117F, Q131A

Another experiment has as its target T4, β16β17 Y28A (human, UniProt P11277 1898-2083, Y2031A).
T4 construct: erythrocyte β-spectrin, human, residues 1898-2083 (β16β17); mutant of m2; also called Y2031A; source: E. coli C41(DE3), purified (Ni2+ agarose, thrombin cleavage, gel filtration)
T4 sequence (looked up): T1 sequence (looked up) with L117F, Y134A

For the next experiment, the target named is β16β17 F51L (human, UniProt P11277 1898-2083, F51L (domain identifier), printed F2054G as protein identifier, The table's protein identifier F2054G is taken as a typo: the domain identifier is F51L (offset 2003), and the text says aromatic residues were mutated to Ala or Leu).
A further experiment has as its target T5, β16β17 L22A (human, UniProt P11277 1898-2083, L2025A).
T5 construct: erythrocyte β-spectrin, human, residues 1898-2083 (β16β17); mutant of m2; also called L2025A; source: E. coli C41(DE3), purified (Ni2+ agarose, thrombin cleavage, gel filtration)
T5 sequence (looked up): T1 sequence (looked up) with L117F, L128A

Experiment [1] deals with T6, β16β17 (erythrocyte β-spectrin residues 1898–2083), wild type (human, UniProt P11277 1898-2083).
T6 construct: erythrocyte β-spectrin, human, residues 1898-2083 (β16 plus the incomplete 17th domain); synthetic gene (GenScript) in a modified pRSETA plasmid; source: E. coli C41(DE3), purified (Ni2+ agarose, thrombin cleavage, gel filtration)
T6 sequence (looked up): T1 sequence (looked up) with L117F

Residue numbers refer to the chain shown, from its start.

B1: α0α1 (erythrocyte α-spectrin residues 2–163), wild type (domain or fragment, human, UniProt P02549 2-163, looked up)
chain: EQFPKETVVESSGPKVLETAEEIQERRQEVLTRYQSFKERVAERGQKLEDSYHLQVFKRDADDLGKWIMEKVNILTDKSYEDPTNIQGKYQKHQSLEAEVQTKSRLMSELEKTREERFTMGHSAHEETKAHIEELRHLWDLLLELTLEKGDQLLRALKFQQY
notes: synthetic gene (GenScript) in a modified pRSETA plasmid; also called α1α0; source: E. coli C41(DE3), purified (Ni2+ agarose, thrombin cleavage, gel filtration)
For the molecule B1, the Ka in the experiment with β16β17 F11L was 16000 M⁻¹; in the experiment with β16β17 Y28L, 170000 M⁻¹; with β16β17 Q25A, 120000 M⁻¹; with β16β17 Y28A, 180000 M⁻¹; with β16β17 F51L it was 180000 M⁻¹; in the experiment with β16β17 L22A, 6000 M⁻¹. In experiment [1], this molecule came in with a Kd of 400 nM.
